Laboratory results: patent US6426335, “Vascular endothelial growth factor (VEGF) nucleic acid ligand complexes” (Gilead Sciences, Inc.)

What was measured:
VEGF165 [1] = target: T1, VEGF165 (Homo sapiens, UniProt P15692-4 P15692-4:27-191); assay: filter; 37C; settings: tags: R&D Systems carrier-free, expressed in Sf21 insect cells; chain copies: homodimer (inferred)
Experimental: (§1) Nucleic Acid Ligands radiolabeled during transcription by incorporation of α-[^32P]-labeled NTPs, or after synthesis using γ-[^32P]-ATP and T4 polynucleotide kinase, were incubated in low concentration (between 20 and 71 pM) with varying concentrations of VEGF or other growth factors at 37° C. for 15 minutes. Incubations were in TBS, PBS, or HEPES-buffered saline (HBS), pH 7.4, with or without the addition of supplemental divalent cations. Samples were passed through prewashed 0.45μ Type HA filters (Millipore) followed by a 5–10 ml wash with binding buffer. Filters were immersed in scintillant and counted to quantitate the amount of protein-bound RNA retained by each filter. The equilibrium dissociation constant (K_D) of Nucleic Acid Ligand binding to a specific protein was calculated from the data points as described in Green et al. (1996) Biochem. 35:14413–14424.

VEGF165 [2] = target: T1, VEGF165; assay: EMSA; competition EMSA; apparent affinity; VEGF isoform not stated; settings: tags: R&D Systems carrier-free, expressed in Sf21 insect cells; chain copies: homodimer (inferred)
Experimental: The binding affinities of the unmodified Nucleic Acid Ligand (NX213, open circle), its dialkyl glycerol modified analog (NX278, open diamond) and liposomal NX278 (NX278-L, open square), along with the sequence scrambled (sc) controls (scNX213, closed circle; scNX278, closed diamond; and scNX278-L, closed square) were determined by a competition electrophoreticmobility shift assay. NX213 is 5'-TsTsTsTs mAaCaC aCaUrG rAaUmG rGaUmA mGrAaC mGaCaC mGmGmG mGaUmG TsTsTsTsT-3' and scNX213 is (SEQ ID NO:1) 5'-TsTsTsTs mGaUaC mGmGaU mAaCrG mGrAmG aUmGrG rAaCnC mGaUaC mAaCmG TsTsTsTsT-3' (SEQ ID NO:4) ^32P 5=end-labeled NX-213 (1.5 nM) was incubated in binding buffer (phosphate buffered saline with 0.01% human serum albumin) at 37° C. for 20 min in the presence of VEGF (0.33 nM) and competitor oligonucleotide(5 pM-0.33 µM). The ^32p NX-213/VEGF complex was resolved from the free ^32p NX-213 by electrophoresison 8% polyacrylamide gel (19:1 acrylamide:bisacrylamide, Tris-borate, 89 mM, 1 mM EDTA as the running buffer). The intensity of the band corresponding to ^32P NX-213/VEGF complex at varying competitor concentrations was quantitated by phosphorimager analysis. Data normalized for the amount of complex formed in the absence of competitor were fitted by the least squares method to the competition binding equation. […]

VEGF165 [3] = target: T1, VEGF165; assay: described previously, quoted for comparison; settings: tags: R&D Systems carrier-free, expressed in Sf21 insect cells; chain copies: homodimer (inferred); label: 32P 5' end
VEGF165 [4] = target: T1, VEGF165; assay: filter; 37C; Ca2+ dependent; settings: tags: R&D Systems carrier-free, expressed in Sf21 insect cells; chain copies: homodimer (inferred)
Experimental: as §1

T1 sequence (P15692 other isoform, or with tags, fused parts or gaps): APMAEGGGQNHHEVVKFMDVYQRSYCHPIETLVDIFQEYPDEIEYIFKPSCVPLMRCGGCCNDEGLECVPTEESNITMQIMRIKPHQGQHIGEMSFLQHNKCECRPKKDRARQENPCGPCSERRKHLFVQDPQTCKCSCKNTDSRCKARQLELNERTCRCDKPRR

## GAAUCAGUGAAUGCUUAUACAUCT (ssRNA, 2'-F pyrimidines; 3'-3' dT cap (N24) [24 (3'-3' dT cap); all C/U 2'-F]) [t44c]
VEGF165 [1]
  Kd: 2 nM

## AACCGAUGGAAUUUUUGGACGCUT (ssRNA, 2'-F pyrimidines; 3'-3' dT cap (N24) [24 (3'-3' dT cap); all C/U 2'-F]) [t2d]
VEGF165 [1]
  Kd: 20 nM

## GAACCGAUGGAAUUUUUGGACGCUCT (ssRNA, 2'-F pyrimidines; 3'-3' dT cap (N26) [26 (3'-3' dT cap); all C/U 2'-F]) [t2c]
VEGF165 [1]
  Kd: 0.2 nM

## TTTTACCCUGAUGGUAGACGCCGGGGUGTTTTT (mixed, as NX278, embedded in DSPC:cholesterol liposome) [NX278-Liposome]
VEGF165 [2]
  binding signal: 3 fold lower than NX278

B1: NX213 (mixed)
mixed: TTTTACCCUGAUGGUAGACGCCGGGGUGTTTTT
modifications: PS DNA T at 1-4 and 29-33; 2'-OMe at 5,13,16,17,20,23-26,28; 2'-NH2 at 6-9,12,15,19,21,22,27
VEGF165 [3]
  Kd: 0.14 nM

## GCGGAAUCAGUGAAUGCUUAUACAUCCGCT (ssRNA, 2'-F pyrimidines; 3'-3' dT cap (N30) [30 (3'-3' dT cap); all C/U 2'-F]) [t44]
VEGF165 [4]
  Kd: 0.01 nM
